B1: TGFBIp G623R peptide (residues 611-633 of the 4th FAS-1 domain), synthetic, as amyloid fibril (peptide)
peptide: EPVAEPDIMATNRVVHVITNVLQ
notes: Assayed as preformed amyloid fibril (many copies); also called G623R fibril; TGFBIp G623R fibril; source: synthetic peptide, bought: Synpeptide Co Ltd; fibrils formed in PBS at 37 °C, 180 rpm
B2: TGFBIp G623R peptide (residues 611-633), recombinant, uniformly 13C,15N-labelled, as amyloid fibril (peptide)
peptide: EPVAEPDIMATNRVVHVITNVLQ
modifications: also: uniformly 13C,15N-labelled
notes: also called double-labeled G623R fibrils; 13C-15N labeled G623R fibril; source: E. coli BL21 (DE3), His-tag-BEAK-tag-TEV fusion, purified (Ni-NTA, TEV cleavage, reverse phase-HPLC); fibrils seeded with 5% (w/v) synthetic G623R seeds in 20 mM TRIS, 37 °C; not shown: His-tag, N-terminal, cleaved; BEAK tag, N-terminal, cleaved
B3: TGFBIp A620D peptide (residues 611-633), recombinant, uniformly 13C,15N-labelled, as amyloid fibril (peptide, UniProt Q15582 611-633, looked up)
peptide: EPVAEPDIMDTNGVVHVITNVLQ
modifications: also: uniformly 13C,15N-labelled
notes: also called A620D fibrils; source: E. coli BL21 (DE3), His-tag-BEAK-tag-TEV fusion, purified (Ni-NTA, TEV cleavage, reverse phase-HPLC); not shown: His-tag, N-terminal, cleaved; BEAK tag, N-terminal, cleaved
B4: human WT lipocalin-type prostaglandin D synthase (L-PGDS) (natural protein)
chain: APEAQVSVQPNFQQDKFLGRWFSAGLASNSSWLREKKAALSMCKSVVAPATDGGLNLTSTFLRKNQCETRTMLLQPAGSLGSYSYRSPHWGSTYSVSVVETDYDQYALLYSQGSKGPGEDFRMATLYSRTQTPRAELKEKFTAFCKAQGFTEDTIVFLPQTDKCMTEQ
notes: Lipocalin-type prostaglandin D synthase (L-PGDS), human, wild type; 15N-labelled for the solution NMR; loaded with heme for the cryo-EM micrographs; unlabelled for ssNMR and ThT assays; also called WT L-PGDS; source: E. coli Rosetta 2 DE3 (pNIC-CH vector), purified (Superdex 75 in PBS)

For series [1], the target named is B4. Nature of the series: NMR titration; 2D 1H-15N HSQC of 15N-labelled L-PGDS without and with G623R fibrils at a molar ratio of 1:4 (L-PGDS: fibrils), 600 MHz. To be noted: both partners purified.
Series [2] concerns the molecule itself. Nature of the series: cryo-EM structure; G623R fibrils, Titan Krios 300 kV, helical reconstruction in RELION-3.1, map at 4.9 Å; model built with the ssNMR restraints.
Series [3] concerns the molecule itself. In words: solid-state NMR; 13C,15N-labelled G623R fibrils packed in a 1.9 mm rotor; 18.8 T, MAS 17.857 kHz, 12 °C; NCA, NCO, DARR (20 and 75 ms), NCACX, NCOCX, CANCO; repeating unit calculated with CYANA.
Series [4] concerns the target B4. In words: solid-state NMR; unlabelled L-PGDS added to preformed 13C,15N-labelled G623R fibrils at 1:10; 1D 13C CP and 2D DARR (20 and 75 ms) compared with fibrils alone. Conditions: both partners purified.
Series [5] concerns the molecule itself. In words: solid-state NMR; 13C,15N-labelled A620D fibrils in a 1.9 mm rotor; 600 MHz, MAS 13333 Hz, 12 °C; NCA spectrum.
In series [6] the target is B1. Nature of the series: cryo-EM micrographs; L-PGDS-heme complex (heme as contrast enhancer) mixed with G623R fibrils at 1:10; stoichiometry counted from the images. To be noted: both partners purified.
The target in series [7] is B1. Nature of the series: cell-based or functional assay.

No end group written: not given here.

B1: the binding result in series [1] and in series [2] was “binds” throughout.
With B2, the binding result in series [3] and in series [4] was “binds” each time.
For B3, in series [5], the binding result is “binds”.
As for B4, the “stoichiometry N” value in series [6] amounted to 7 peptides per L-PGDS. In series [7], the “persistence length of G623R fibrils in cryo-EM micrographs without and with L-PGDS” value came to 4 fold; the “reduction of ThT intensity of preformed G623R fibrils after 24 h with L-PGDS at molar ratios of 1:2, 1:5 and 1:10 (52%, 27%, 19%)” value was 52%.

For orientation: stoichiometry N means a count of units in the complex or per binding partner.

The values are drawn from publication PMC10063603, “Release of frustration drives corneal amyloid disaggregation by brain chaperone” (Communications Biology, 2023).
